Blank lines part the entries; values can stand above or below the binder they belong to.
Key:
[1] = molecular target: T1, human CD39 expressed on the cell surface (human, UniProt P49961 1-510); assay: flow cytometry on purified human CD14+ monocytes, 0 uM ATP
T1 construct: full-length human CD39 transfected into CHO-K1, or endogenous human CD39 on primary cells and cell lines, or human CD39 of knock-in mice; also called Human CD39-CHO-K1; cellular human CD39
T1 sequence: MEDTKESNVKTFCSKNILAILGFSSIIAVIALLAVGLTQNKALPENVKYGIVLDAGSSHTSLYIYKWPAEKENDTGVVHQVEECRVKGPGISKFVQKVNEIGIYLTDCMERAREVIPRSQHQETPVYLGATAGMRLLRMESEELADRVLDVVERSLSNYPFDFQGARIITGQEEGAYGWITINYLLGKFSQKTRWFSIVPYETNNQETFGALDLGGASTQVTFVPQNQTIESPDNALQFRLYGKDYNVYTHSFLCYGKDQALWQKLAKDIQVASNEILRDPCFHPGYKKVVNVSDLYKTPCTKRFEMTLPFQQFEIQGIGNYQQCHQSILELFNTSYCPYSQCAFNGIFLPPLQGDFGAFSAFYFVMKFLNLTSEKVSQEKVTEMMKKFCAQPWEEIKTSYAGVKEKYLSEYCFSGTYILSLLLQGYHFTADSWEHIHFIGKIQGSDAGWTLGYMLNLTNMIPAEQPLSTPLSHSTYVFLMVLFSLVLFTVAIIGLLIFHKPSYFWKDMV

[2] = molecular target: T1, human CD39 expressed on the cell surface; assay: flow cytometry on purified human CD14+ monocytes, 400 uM ATP
[3] = molecular target: T2, cynomolgus monkey CD39 expressed on HEK-293 cells (cynomolgus monkey, UniProt P49961 5-510 (human entry)); assay: FACS on HEK293 cells overexpressing cynomolgus CD39
T2 construct: also called Cynomolgus Monkey CD39-HEK293
T2 chain: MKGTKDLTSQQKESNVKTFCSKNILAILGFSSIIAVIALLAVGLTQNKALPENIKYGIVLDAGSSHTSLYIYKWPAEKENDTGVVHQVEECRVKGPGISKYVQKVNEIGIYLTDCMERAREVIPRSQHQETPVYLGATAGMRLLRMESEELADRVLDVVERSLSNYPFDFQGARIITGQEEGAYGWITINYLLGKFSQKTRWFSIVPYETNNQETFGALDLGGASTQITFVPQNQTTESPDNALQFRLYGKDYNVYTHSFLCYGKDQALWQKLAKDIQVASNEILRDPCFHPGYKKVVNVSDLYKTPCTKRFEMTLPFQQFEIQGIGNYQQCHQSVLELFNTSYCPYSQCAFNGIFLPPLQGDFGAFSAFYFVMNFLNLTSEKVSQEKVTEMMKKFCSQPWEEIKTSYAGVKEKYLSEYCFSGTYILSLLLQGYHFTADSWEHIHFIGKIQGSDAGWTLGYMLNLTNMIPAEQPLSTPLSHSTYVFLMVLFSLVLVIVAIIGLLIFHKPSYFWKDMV

[4] = molecular target: T3, soluble His-tagged human CD39 ECD protein (human, UniProt P49961 38-478); assay: SPR (Biacore 8K), antibody captured via anti-human Fc, CD39 ECD analyte, 25 C
T3 construct: also called human CD39 ECD His-tagged antigen; Sino Biological Cat. No. 16020-H08B
T3 sequence: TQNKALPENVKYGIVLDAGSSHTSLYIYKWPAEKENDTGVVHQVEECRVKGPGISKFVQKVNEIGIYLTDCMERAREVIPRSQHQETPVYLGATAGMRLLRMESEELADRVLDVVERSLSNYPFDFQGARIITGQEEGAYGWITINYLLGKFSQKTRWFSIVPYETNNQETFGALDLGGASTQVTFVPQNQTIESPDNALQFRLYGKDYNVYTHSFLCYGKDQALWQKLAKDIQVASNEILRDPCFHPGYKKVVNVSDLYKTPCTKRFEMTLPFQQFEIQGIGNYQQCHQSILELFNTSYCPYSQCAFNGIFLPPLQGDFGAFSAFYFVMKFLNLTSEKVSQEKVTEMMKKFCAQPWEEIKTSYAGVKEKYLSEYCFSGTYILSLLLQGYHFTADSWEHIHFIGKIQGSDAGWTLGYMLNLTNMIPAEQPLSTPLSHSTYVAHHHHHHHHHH

[5] = molecular target: T1, human CD39 expressed on the cell surface; assay: cell-based or functional assay
[6] = molecular target: T1, human CD39 expressed on the cell surface; assay: cell-based or functional assay; remark: listed apart in the source
[7] = molecular target: T4, recombinant human CD39 (soluble) (human, UniProt P49961 38-478, limits assumed); assay: cell-based or functional assay
T4 sequence (looked up): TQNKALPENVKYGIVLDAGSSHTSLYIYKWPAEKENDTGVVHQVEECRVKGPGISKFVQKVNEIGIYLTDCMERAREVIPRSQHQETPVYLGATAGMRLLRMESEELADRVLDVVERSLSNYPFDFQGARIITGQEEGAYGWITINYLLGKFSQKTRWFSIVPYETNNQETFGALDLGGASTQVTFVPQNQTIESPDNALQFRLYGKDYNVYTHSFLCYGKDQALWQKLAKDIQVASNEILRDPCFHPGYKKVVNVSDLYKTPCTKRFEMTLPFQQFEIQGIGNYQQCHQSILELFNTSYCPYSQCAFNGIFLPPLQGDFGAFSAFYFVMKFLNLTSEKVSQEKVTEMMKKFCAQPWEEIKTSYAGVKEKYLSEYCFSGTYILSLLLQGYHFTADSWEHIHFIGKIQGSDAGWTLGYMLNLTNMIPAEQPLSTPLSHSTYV

[8] = molecular target: T3, soluble His-tagged human CD39 ECD …; assay: SPR (Biacore 8K), antibody captured via anti-human Fc, CD39 ECD analyte
[9] = molecular target: T5, murine CD39 expressed on HEK-293 cells (murine, UniProt P55772 1-510); assay: FACS on HEK-293 cells overexpressing murine CD39 (method of Example 1)
T5 construct: also called mouse CD39
T5 sequence: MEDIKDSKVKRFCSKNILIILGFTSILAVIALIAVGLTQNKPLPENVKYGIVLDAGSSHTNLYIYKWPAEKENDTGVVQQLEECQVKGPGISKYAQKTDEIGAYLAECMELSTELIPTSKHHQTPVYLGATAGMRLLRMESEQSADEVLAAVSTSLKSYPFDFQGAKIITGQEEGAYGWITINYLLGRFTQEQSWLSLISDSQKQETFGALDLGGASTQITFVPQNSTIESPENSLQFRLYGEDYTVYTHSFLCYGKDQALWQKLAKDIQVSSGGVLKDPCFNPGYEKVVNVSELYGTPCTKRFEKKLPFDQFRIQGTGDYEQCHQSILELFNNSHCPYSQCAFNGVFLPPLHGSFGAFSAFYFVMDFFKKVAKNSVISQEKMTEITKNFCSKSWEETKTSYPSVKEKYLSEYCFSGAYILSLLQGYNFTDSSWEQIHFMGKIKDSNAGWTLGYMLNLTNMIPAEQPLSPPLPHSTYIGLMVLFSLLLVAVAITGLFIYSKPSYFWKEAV

[10] = molecular target: T1, human CD39 expressed on the cell surface; assay: FACS on CHO-K1 cells overexpressing human CD39
[11] = molecular target: T1, human CD39 expressed on the cell surface; assay: cell-based or functional assay; remark: listed apart in the source
[12] = molecular target: T3, soluble His-tagged human CD39 ECD …; assay: SPR (Biacore 8K), antibody captured via anti-human Fc, CD39 ECD analyte; remark: listed apart in the source

EC50 [1]: 0.69 nM | EC50 [2]: 1.3 nM | EC50 [3]: 0.32 nM | Kd [4]: 0.214 nM | koff [4]: 7.45e-05 s⁻¹ | kon [4]: 348000 M⁻¹ s⁻¹ | IC50, CD39 enzymatic inhibition on THP-1 cells, 20 uM ATP [5]: 0.11 nM | Max Inhibition (%), THP-1 cells [5]: 67% | Human THP-1 CD39 inhibition IC50 [6]: 0.042 nM | IC50, inhibition of recombinant CD39 enzymatic activity, 20 uM ATP [7]: 2.3 nM | Max Inhibition (%), recombinant CD39, 20 uM ATP [7]: 100% | Kd [8]: 0.336 nM | koff [8]: 9.4e-05 s⁻¹ | kon [8]: 280000 M⁻¹ s⁻¹ | binding result [9]: no binding | EC50 [10]: 0.79 nM | IC50, CD39 enzymatic inhibition on SK-MEL-5 cells, 20 uM ATP [11]: 0.56 nM | Max Inhibition (%), SK-MEL-5 cells [11]: 63%
B1: ch39_IGG4.P (antibody, human IgG4 S228P, kappa)
heavy: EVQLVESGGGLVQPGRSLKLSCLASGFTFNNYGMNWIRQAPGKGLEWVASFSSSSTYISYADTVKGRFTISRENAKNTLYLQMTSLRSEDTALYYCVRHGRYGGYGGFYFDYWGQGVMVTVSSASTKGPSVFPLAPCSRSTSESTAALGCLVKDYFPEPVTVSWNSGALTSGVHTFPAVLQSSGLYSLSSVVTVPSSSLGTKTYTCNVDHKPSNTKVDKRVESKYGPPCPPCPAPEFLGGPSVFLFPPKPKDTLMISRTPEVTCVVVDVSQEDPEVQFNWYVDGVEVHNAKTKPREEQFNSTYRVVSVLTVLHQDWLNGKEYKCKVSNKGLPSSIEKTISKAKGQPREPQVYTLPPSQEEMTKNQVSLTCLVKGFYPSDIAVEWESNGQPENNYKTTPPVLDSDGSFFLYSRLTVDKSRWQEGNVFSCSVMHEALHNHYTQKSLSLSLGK
light: DTVLTQSPALAVSPGERVSISCRASEGVKSYMHWYQQKPGQQPKLLIYKASNLASGVPARFSGSGSGTDFTLTIDPVEADDTATYFCQQSWNDPTFGAGTKLELKRTVAAPSVFIFPPSDEQLKSGTASVVCLLNNFYPREAKVQWKVDNALQSGNSQESVTEQDSKDSTYSLSSTLTLSKADYEKHKVYACEVTHQGLSSPVTKSFNRGEC
notes: rat/human chimera of antibody 39, human IgG4 (S228P), kappa

EC50 [1]: 27 nM | EC50 [2]: 28 nM | EC50 [3]: 2.55 nM | Kd [12]: 0.129 nM | koff [12]: 0.00015 s⁻¹ | kon [12]: 1.16e+06 M⁻¹ s⁻¹ | Kd [4]: 0.113 nM | koff [4]: 0.000125 s⁻¹ | kon [4]: 1.1e+06 M⁻¹ s⁻¹ | IC50, CD39 enzymatic inhibition on THP-1 cells, 20 uM ATP [5]: 0.14 nM | Max Inhibition (%), THP-1 cells [5]: 86% | Human THP-1 CD39 inhibition IC50 [6]: 0.09 nM | IC50, inhibition of recombinant CD39 enzymatic activity, 20 uM ATP [7]: 1.3 nM | Max Inhibition (%), recombinant CD39, 20 uM ATP [7]: 100% | binding result [9]: no binding | EC50 [10]: 4.44 nM | IC50, CD39 enzymatic inhibition on SK-MEL-5 cells, 20 uM ATP [11]: 2.4 nM | Max Inhibition (%), SK-MEL-5 cells [11]: 63%
B2: ch31_IGG4.P (antibody, human IgG4 S228P, kappa, V domains shown)
VH: EVHLQQSGAALVRPGTSVKLPCKVSGDSITAYFMHFVRQRPGQGLEWMGRIDPDHERTKYAEKFKNRASLTSETSSNTVFLQLTSLTSEDTATYFCTTERVPGFETDYWGQGVMVTVSS
VL: DIVLTQSPTLAVSLGQRATISCRTNQTVDHYGTTYMNWYQQKPGQQPKLLIYLASSLASGIPARFSGRGSGTDFTLTIDPVEADDTATYYCQQSRNLWTFGGGTKLELKR
notes: rat/human chimera of antibody 31, human IgG4 (S228P), kappa

EC50 [1]: 61 nM | EC50 [2]: 49 nM | EC50 [3]: 4.3 nM | Kd [4]: 0.443 nM | koff [4]: 0.0004 s⁻¹ | kon [4]: 902000 M⁻¹ s⁻¹ | IC50, CD39 enzymatic inhibition on THP-1 cells, 20 uM ATP [5]: 0.75 nM | Max Inhibition (%), THP-1 cells [5]: 75% | Human THP-1 CD39 inhibition IC50 [6]: 0.44 nM | IC50, inhibition of recombinant CD39 enzymatic activity, 20 uM ATP [7]: 1.8 nM | Max Inhibition (%), recombinant CD39, 20 uM ATP [7]: 100% | binding result [9]: no binding | EC50 [10]: 9.04 nM | IC50, CD39 enzymatic inhibition on SK-MEL-5 cells, 20 uM ATP [11]: 5.4 nM | Max Inhibition (%), SK-MEL-5 cells [11]: 55%
B3: ch19_IGG4.P (antibody, human IgG4 S228P, kappa, V domains shown)
VH: QVQLKETGPGLVQPTQTLSITCTVSGFSLTSYFTQWVRQTPGKGLEWMGFIRSGGSTQYNSAFKSRLSISRDTSKNQVFLKMNSLKTEDTGVYYCARDRPDYHDGTYGVLDVWGQGASVTVSS
VL: DIRMTQSPASLSASLGETVNIECLASEDIDSDLAWYQKKPGKSPQLLIYNGNALQNGVPSRFSGSGSGTHFSLKINSLQSEDVATYFCQQYINYPYTFGGGTKLELRR
notes: rat/human chimera of antibody 19, human IgG4 (S228P), kappa

Reference: patent US20250084178A1 (ARCUS BIOSCIENCES, published 2025)
